# In article PMC8616692:
# Target: 3CLpro (chymotrypsin-like cysteine protease, nsp5) of SARS-CoV-2, wild type (SARS-CoV-2)
# Assay: SEC
substance,measurement,value
"3CLpro (chymotrypsin-like cysteine protease, nsp5) of SARS-CoV-2, wild type (enzyme)",stoichiometry N,2
